Assay results taken from publication PMC3057972, “BAG3 Directly Interacts with Mutated alphaB-Crystallin to Suppress Its Aggregation and Toxicity” (PLoS ONE, 2011).

B1: purified αB-crystallin wild type (from E. coli) (natural protein, human, UniProt P02511 1-175, looked up)
chain: MDIAIHHPWIRRPFFPFHSPSRLFDQFFGEHLLESDLFPTSTSLSPFYLRPPSFLRAPSWFDTGLSEMRLEKDRFSVNLDVKHFSPEELKVKVLGDVIEVHGKHEERQDEHGFISREFHRKYRIPADVDPLTITSSLSSDGVLTVNGPRKQVSGPERTIPITREEKPAVTAAPKK
notes: αB-crystallin, human, wild type; probably made as a GST fusion from pGEX-6P-1 with the GST removed (it is pulled down by GST-BAG3 on GSH beads); also called WT; source: E. coli, purified
B2: purified αB-crystallin R120G (from E. coli) (natural protein, human, UniProt P02511 1-175, looked up)
chain: MDIAIHHPWIRRPFFPFHSPSRLFDQFFGEHLLESDLFPTSTSLSPFYLRPPSFLRAPSWFDTGLSEMRLEKDRFSVNLDVKHFSPEELKVKVLGDVIEVHGKHEERQDEHGFISREFHGKYRIPADVDPLTITSSLSSDGVLTVNGPRKQVSGPERTIPITREEKPAVTAAPKK
notes: αB-crystallin, human, mutant R120G found in myofibrillar myopathy patients; probably made as a GST fusion from pGEX-6P-1 with the GST removed; also called R120G αB-crystallin; mutant (R120G); source: E. coli, purified
B3: peptide corresponding to aa 87–101 of BAG3 (peptide, UniProt O95817 87-101, looked up)
peptide: PQLRPGYIPIPVLHE
notes: BAG3, human, amino acids 87–101; source: peptide, 'generated'
B4: peptide corresponding to aa 200–213 of BAG3 (peptide, UniProt O95817 200-213, looked up)
peptide: QLPRGYISIPVIHE
notes: BAG3, human, amino acids 200–213; source: peptide, 'generated'
B5: GST-αB-crystallin wild type (natural protein, human, UniProt P02511 1-175, looked up)
chain: MDIAIHHPWIRRPFFPFHSPSRLFDQFFGEHLLESDLFPTSTSLSPFYLRPPSFLRAPSWFDTGLSEMRLEKDRFSVNLDVKHFSPEELKVKVLGDVIEVHGKHEERQDEHGFISREFHRKYRIPADVDPLTITSSLSSDGVLTVNGPRKQVSGPERTIPITREEKPAVTAAPKK
notes: αB-crystallin, human, wild type, cDNA subcloned into pGEX-6P-1; also called GST-fused αB-crystallin wild type (WT); GST fusion αB-crystallin; source: E. coli BL21, purified (glutathione-Sepharose beads)
B6: GST-αB-crystallin R120G (natural protein, human, UniProt P02511 1-175, looked up)
chain: MDIAIHHPWIRRPFFPFHSPSRLFDQFFGEHLLESDLFPTSTSLSPFYLRPPSFLRAPSWFDTGLSEMRLEKDRFSVNLDVKHFSPEELKVKVLGDVIEVHGKHEERQDEHGFISREFHGKYRIPADVDPLTITSSLSSDGVLTVNGPRKQVSGPERTIPITREEKPAVTAAPKK
notes: αB-crystallin, human, mutant R120G found in myofibrillar myopathy patients, cDNA subcloned into pGEX-6P-1; also called GST R120GαB-crystallin; GST-fused αB-crystallin mutant (R120G); source: E. coli BL21, purified (glutathione-Sepharose beads)

What was measured:
Conditions in all cases: both partners purified
GST-BAG3 [1] = target: T1, GST-BAG3 (human, UniProt O95817 1-575); assay: pull-down; competition: purified GST-BAG3 incubated with purified αB-crystallin in the presence or absence of peptides aa 87–101 or 200–213 of BAG3; precipitated with GSH beads; immunoblot with anti-αB-crystallin antibody
T1 construct: BAG3, human, cDNA subcloned into pGEX-6P-1; also called GST-fused BAG3; GST protein fused to BAG3; source: E. coli BL21, purified (glutathione-Sepharose beads)

GST-BAG3 [2] = target: T1, GST-BAG3; assay: pull-down; purified GST-BAG3 incubated with purified αB-crystallin in immunoprecipitation buffer, precipitated with glutathione-Sepharose beads; immunoblot with anti-αB-crystallin antibody
[3] = target: B1; assay: pull-down; competition: purified GST-BAG3 incubated with purified αB-crystallin in the presence or absence of peptides aa 87–101 or 200–213 of BAG3; precipitated with GSH beads; immunoblot with anti-αB-crystallin antibody
[4] = target: T2, purified BAG3 (from E. coli) (human, UniProt O95817 1-575); assay: pull-down; purified GST-fused αB-crystallin (WT or R120G) mixed with purified BAG3, pulled down with glutathione sepharose beads; immunoblot with anti-BAG3 antibody
T2 construct: BAG3, human; probably made as GST-BAG3 from pGEX-6P-1 with the GST removed (it is pulled down by GST-αB-crystallin on glutathione beads); source: E. coli BL21, purified
T2 sequence (O95817 whole entry, the tested form may be a part): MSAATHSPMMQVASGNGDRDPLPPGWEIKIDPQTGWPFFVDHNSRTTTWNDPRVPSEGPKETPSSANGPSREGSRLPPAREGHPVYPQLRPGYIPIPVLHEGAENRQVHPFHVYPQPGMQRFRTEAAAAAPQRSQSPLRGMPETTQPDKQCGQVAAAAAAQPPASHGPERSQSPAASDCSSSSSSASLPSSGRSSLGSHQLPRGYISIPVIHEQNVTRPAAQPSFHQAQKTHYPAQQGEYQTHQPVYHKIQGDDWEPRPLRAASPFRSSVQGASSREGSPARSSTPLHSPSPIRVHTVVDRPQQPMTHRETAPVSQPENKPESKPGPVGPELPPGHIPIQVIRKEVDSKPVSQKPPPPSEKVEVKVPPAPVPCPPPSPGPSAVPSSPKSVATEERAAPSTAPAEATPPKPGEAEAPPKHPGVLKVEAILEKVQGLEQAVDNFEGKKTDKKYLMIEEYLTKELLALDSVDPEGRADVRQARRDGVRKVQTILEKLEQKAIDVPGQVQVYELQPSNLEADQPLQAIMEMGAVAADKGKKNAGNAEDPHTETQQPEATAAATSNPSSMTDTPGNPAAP

T1 sequence (O95817 whole entry, the tested form may be a part): as above

| Binder | binding result [3] | binding result [4] | further results |
| --- | --- | --- | --- |
| B1 |  |  | binding result (GST-BAG3 [1]): binds |
| B2 |  |  | binding result (GST-BAG3 [2]): binds |
| B3 | binds |  |  |
| B4 | binds |  |  |
| B5 |  | binds |  |
| B6 |  | binds |  |
